Results taken from patent publication US20100129815.

How the values were obtained:
[1] = biological target: T1, GST-MLC2a fusion protein, Q9QVP4
T1 chain: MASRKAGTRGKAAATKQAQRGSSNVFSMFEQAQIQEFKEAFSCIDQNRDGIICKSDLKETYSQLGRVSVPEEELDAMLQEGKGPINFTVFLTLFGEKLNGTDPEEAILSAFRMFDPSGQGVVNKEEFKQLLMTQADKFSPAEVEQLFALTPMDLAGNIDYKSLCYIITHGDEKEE

[2] = biological target: T2, GST-MLC2v fusion protein, P08733
T2 chain: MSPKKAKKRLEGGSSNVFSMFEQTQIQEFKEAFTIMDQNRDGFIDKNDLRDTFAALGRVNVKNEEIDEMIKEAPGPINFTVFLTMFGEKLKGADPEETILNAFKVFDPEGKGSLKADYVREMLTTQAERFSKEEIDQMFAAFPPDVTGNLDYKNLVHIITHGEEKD

B1: HA-tagged full length cardiac MLCK (protein)
chain: MYPYDVPDYASGVSEEDPEGLAPQGLPALGGACLATMDKKLNVLTEKVDRLLHFQEDVTEKLQCVCQGMDHLEQDLHRLEASRELSLAGSGSTPPTTAQAAWPEVLELVRAVRQEGAQHGARLEALFKMVVAVDRAITLVGSTFQNSKVADFIMQGTVPGRKGSLADGPEENKEQAEVAGVKPNHVLTTGGVQADASRTLWEESQKEDIPVRTVEGLPLIINTSLKGADLTQAGASLRQGVEVLGPGQVPLPTEAESRLPETASENTGATLELSVAIDRISEVLTSLKMSQGGGQETSSSKPDCWLSEEAMRLSSGPLPQPLGPLTPDSDIHSGDALPRIPINMQEMATPGELLETQSGSPIGSAEAPGLGTVLEDQIPKGARPFPPLPKRSSNNGGMSAEEEIGSGAEPMRGPSLATRDWRDETVGTTDLQQGIDPGAVSPEPGKDHAAQGPGRTEAGRLSSAAEAAIVVLDDSAAPPAPFEHRVVSIKDTLISAGYTVSQHEVLGGGRFGQVHRCTERSTGLALAAKIIKVKNVKDREDVKNEVNIMNQLSHVNLIQLYDAFESKSSFTLIMEYVDGGELFDRITDEKYHLTELDVVLFTRQICEGVHYLHQHYILHLDLKPENILCVSQTGHQIKIIDFGLARRYKPREKLKVNFGTPEFLAPEVVNYEFVSFPTDMWSVGVITYMLLSGLSPFLGETDAETMNFIVNCSWDFDADTFKGLSEEAKDFVSRLLVKEKSCRMSATQCLKHEWLSHLPAKASGSNVRLRSQQLLQKYMAQSKWKKHFHVVTAVNRLRKFPTCP
- in vitro kinase assay, incorporation of 32P [1]: promotes incorporation of ^32P to GST-MLC2v and GST-MLC2a fusion proteins
- Km (Lineweaver-Burk plot, 32P incorporation into GST-MLC2v; with Ca2+/calmodulin) [2]: 3.9±1.2 (with Ca^2+/calmodulin)
- Km (Lineweaver-Burk plot, 32P incorporation into GST-MLC2v; with EGTA) [2]: 2.9±0.8 (with EGTA)
- Km (Lineweaver-Burk plot, 32P incorporation into GST-MLC2v; without EGTA and Ca2+/calmodulin) [2]: Km value of 4.3±1.5 µM
- in vitro kinase assay, incorporation of 32P [2]: promotes incorporation of ^32P to GST-MLC2v and GST-MLC2a fusion proteins
